Source: doi:10.1101/2021.03.22.436490

Assays:
[1] = biological target: Vibrio cholerae Chromosome 2 ParA (ParA2vc) (Vibrio cholerae); test: crystal structure
[2] = biological target: Vibrio cholerae Chromosome 2 ParA (ParA2vc) (Vibrio cholerae); test: crystal structure; remark: listed apart in the source
[3] = biological target: Vibrio cholerae Chromosome 2 ParA (ParA2vc) (Vibrio cholerae); test: negative-stain EM

Measured: stoichiometry N

Vibrio cholerae Chromosome 2 ParA (ParA2vc) (natural protein)
2: [1] | [2] | [3]
